Data: US20230279089A1 (GlaxoSmithKline, published 2023)

T1: Human BMP1 CD+CUB1 truncated antigen (human, UniProt P13497 121-434, limits assumed)
T1 construct: domain: CD+CUB1
T1 sequence (looked up): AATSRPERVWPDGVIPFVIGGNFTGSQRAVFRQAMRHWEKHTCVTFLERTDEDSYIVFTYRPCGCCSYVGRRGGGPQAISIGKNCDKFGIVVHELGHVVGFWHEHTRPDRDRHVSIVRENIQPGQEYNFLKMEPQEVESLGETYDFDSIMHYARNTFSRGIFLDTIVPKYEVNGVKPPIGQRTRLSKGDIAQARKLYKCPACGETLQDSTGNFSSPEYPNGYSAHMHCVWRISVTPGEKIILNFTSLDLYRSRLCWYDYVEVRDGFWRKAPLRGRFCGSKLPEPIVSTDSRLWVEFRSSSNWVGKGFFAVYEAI

T2: Human BMP1-1 (human, UniProt P13497-2 121-730, limits assumed)
T2 sequence (looked up): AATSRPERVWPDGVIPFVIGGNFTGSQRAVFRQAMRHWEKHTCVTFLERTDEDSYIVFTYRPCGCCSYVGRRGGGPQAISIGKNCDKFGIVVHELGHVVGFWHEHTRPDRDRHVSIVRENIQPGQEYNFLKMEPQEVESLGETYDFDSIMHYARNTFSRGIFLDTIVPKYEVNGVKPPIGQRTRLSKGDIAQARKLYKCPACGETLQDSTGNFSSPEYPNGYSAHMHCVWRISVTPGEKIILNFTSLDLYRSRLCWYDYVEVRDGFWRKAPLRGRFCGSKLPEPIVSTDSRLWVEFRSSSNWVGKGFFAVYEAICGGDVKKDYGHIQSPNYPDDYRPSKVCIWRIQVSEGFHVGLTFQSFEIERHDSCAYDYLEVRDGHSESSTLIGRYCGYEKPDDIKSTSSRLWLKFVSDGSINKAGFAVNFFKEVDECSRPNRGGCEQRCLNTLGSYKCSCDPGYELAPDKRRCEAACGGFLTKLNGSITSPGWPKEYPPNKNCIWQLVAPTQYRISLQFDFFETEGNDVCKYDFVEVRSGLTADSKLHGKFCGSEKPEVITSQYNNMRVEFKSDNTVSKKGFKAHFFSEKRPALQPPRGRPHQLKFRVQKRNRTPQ

T3: Mouse TLL1 (mouse, UniProt Q62381 148-1013, limits assumed)
T3 sequence (looked up): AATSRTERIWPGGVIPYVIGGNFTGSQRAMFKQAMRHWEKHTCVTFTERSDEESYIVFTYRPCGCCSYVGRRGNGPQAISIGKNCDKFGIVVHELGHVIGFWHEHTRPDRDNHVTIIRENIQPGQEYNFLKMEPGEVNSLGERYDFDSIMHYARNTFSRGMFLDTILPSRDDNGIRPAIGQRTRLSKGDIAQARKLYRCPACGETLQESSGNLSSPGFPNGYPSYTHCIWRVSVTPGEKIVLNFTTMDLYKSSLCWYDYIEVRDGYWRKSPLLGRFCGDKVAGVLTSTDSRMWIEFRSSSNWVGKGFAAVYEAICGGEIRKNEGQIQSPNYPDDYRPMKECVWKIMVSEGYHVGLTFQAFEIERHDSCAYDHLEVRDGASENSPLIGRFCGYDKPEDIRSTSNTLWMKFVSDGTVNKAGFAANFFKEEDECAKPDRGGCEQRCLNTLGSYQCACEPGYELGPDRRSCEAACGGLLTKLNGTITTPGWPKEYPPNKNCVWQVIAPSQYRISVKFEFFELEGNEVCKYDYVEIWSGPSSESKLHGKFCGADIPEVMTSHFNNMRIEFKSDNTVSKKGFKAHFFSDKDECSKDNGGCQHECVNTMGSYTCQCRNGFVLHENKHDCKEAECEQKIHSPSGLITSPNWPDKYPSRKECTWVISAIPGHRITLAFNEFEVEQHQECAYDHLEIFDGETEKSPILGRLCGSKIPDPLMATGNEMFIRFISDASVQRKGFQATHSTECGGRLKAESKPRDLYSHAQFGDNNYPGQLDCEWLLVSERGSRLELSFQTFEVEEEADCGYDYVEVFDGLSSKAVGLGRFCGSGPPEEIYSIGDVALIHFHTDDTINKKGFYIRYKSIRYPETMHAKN


Experiments:
[1] = biological target: T1, Human BMP1 CD+CUB1 truncated antigen; assay: SPR, mAb captured on protein A, HBS-EP
Experimental: The 16 lead panel antibodies expressed in HEK cells were evaluated for binding to a truncated version of human BMP containing the catalytic domain and truncated domain (Human BMP1 CD+CUB1 truncated antigen) by SPR using BIACORE T200. HBS-EP+ buffer was used and the experiment run at 25° C. Protein A was immobilised to a CM5 sensor chip via amine coupling. The lead panel antibodies were captured onto protein A surface. Human BMP1 CD+CUB1 was then passed over the captured antibodies at various concentrations.

[2] = biological target: T2, Human BMP1-1; assay: cell-based or functional assay
[3] = biological target: T3, Mouse TLL1; assay: cell-based or functional assay

Row | Binder | Kd [1] | IC50, FRET enzyme activity, 62.5 pM huBMP1 [2] | IC50, FRET enzyme activity, 800 pM biotinylated mTLL-1 [3]
1 | 13Y039-4B06-4324 (antibody, human IgG1, kappa, V domains shown, Fully human IgG1 LAGA, kappa; HEK expressed) VH: QVQLVQSGAEVKKPGASVKVSCKASGYTFRGYYMSWVRQAPGQGLEWMGWINPMSGETNYAQKFQGRVTMTRDTSISTAYMELSRLRSDDTAVYYCARDTGELDGMNWYFDLWGRGTLVTVSS VL: EIVLTQSPATLSLSPGERATLSCRASQSVSSYLAWYQQKPGQAPRLLIYDASNRATGIPARFSGSGSGTDFTLTISSLEPEDFAVYYCQQSDSWPPTFGGGTKVEIKR | 3.9 nM | 0.02 nM | 0.1 nM
2 | 13Y039-4B06-4328 (antibody, human IgG1, kappa, V domains shown, Fully human IgG1 LAGA, kappa; HEK expressed) VH: QVQLVQSGAEVKKPGASVKVSCKASGYTFHGYYMNWVRQAPGQGLEWMGWINPLSGETNYAQKFQGRVTMTRDTSISTAYMELSRLRSDDTAVYYCARDTGELDGMNWYFDLWGRGTLVTVSS VL: EIVLTQSPATLSLSPGERATLSCRASQSVSSYLAWYQQKPGQAPRLLIYDASNRATGIPARFSGSGSGTDFTLTISSLEPEDFAVYYCQQSDSWPPTFGGGTKVEIKR | 2.8 nM | 0.03 nM | 0.07 nM
3 | 13Y039-4B06-4351 (antibody, human IgG1, kappa, V domains shown, Fully human IgG1 LAGA, kappa; HEK expressed) VH: QVQLVQSGAEVKKPGASVKVSCKASGYTFSGYYMSWVRQAPGQGLEWMGWINPNSGETFYAQKFQGRVTMTRDTSISTAYMELSRLRSDDTAVYYCARDTGELDGMNWYFDLWGRGTLVTVSS VL: EIVLTQSPATLSLSPGERATLSCRASQSVSSYLAWYQQKPGQAPRLLIYDASNRATGIPARFSGSGSGTDFTLTISSLEPEDFAVYYCQQSDSWPPTFGGGTKVEIKR | 1.9 nM | 0.03 nM | 0.14 nM
4 | 13Y039-4B06-4373 (antibody, human IgG1, kappa, V domains shown, Fully human IgG1 LAGA, kappa; HEK expressed) VH: QVQLVQSGAEVKKPGASVKVSCKASGYTFRSYYMNWVRQAPGQGLEWMGIINPSSGETSYAQKFQGRVTMTRDTSTSTVYMELSSLRSEDTAVYYCARDTGELDGMNWYFDLWGRGTLVTVSS VL: EIVLTQSPATLSLSPGERATLSCRASQSVSSYLAWYQQKPGQAPRLLIYDASNRATGIPARFSGSGSGTDFTLTISSLEPEDFAVYYCQQSDSWPPTFGGGTKVEIKR | 3.3 nM | 0.09 nM | 0.13 nM
5 | 13Y039-4B06-4325 (antibody, human IgG1, kappa, V domains shown, Fully human IgG1 LAGA, kappa; HEK expressed) VH: QVQLVQSGAEVKKPGASVKVSCKASGYTFWGYYMSWVRQAPGQGLEWMGWINPQSGETNYAQKFQGRVTMTRDTSISTAYMELSRLRSDDTAVYYCARDTGELDGMNWYFDLWGRGTLVTVSS VL: EIVLTQSPATLSLSPGERATLSCRASQSVSSYLAWYQQKPGQAPRLLIYDASNRATGIPARFSGSGSGTDFTLTISSLEPEDFAVYYCQQSDSWPPTFGGGTKVEIKR | 2.8 nM | 0.03 nM | 0.07 nM
6 | 13Y039-4B06-4364 (antibody, human IgG1, kappa, V domains shown, Fully human IgG1 LAGA, kappa; HEK expressed) VH: QVQLVQSGAEVKKPGASVKVSCKASGYTFRGYYMSWVRQAPGQGLEWMGWINPNSGETIYAQKFQGRVTMTRDTSISTAYMELSRLRSDDTAVYYCARDTGELDGMNWYFDLWGRGTLVTVSS VL: EIVLTQSPATLSLSPGERATLSCRASQSVSSYLAWYQQKPGQAPRLLIYDASNRATGIPARFSGSGSGTDFTLTISSLEPEDFAVYYCQQSDSWPPTFGGGTKVEIKR | 2.4 nM | 0.02 nM | 0.13 nM
7 | 13Y039-4B06-4327 (antibody, human IgG1, kappa, V domains shown, Fully human IgG1 LAGA, kappa; HEK expressed) VH: QVQLVQSGAEVKKPGASVKVSCKASGYTFPGYYMTWVRQAPGQGLEWMGNINPNSGWTNYAQKFQGRVTMTRDTSISTAYMELSRLRSDDTAVYYCARDTGELDGMNWYFDLWGRGTLVTVSS VL: EIVLTQSPATLSLSPGERATLSCRASQSVSSYLAWYQQKPGQAPRLLIYDASNRATGIPARFSGSGSGTDFTLTISSLEPEDFAVYYCQQSDSWPPTFGGGTKVEIKR | 1.5 nM | 0.01 nM | 0.04 nM
8 | 13Y039-152B02-2940 (antibody, human IgG1, kappa, V domains shown, Fully human IgG1 LAGA, kappa; HEK expressed) VH: QVQLVQSGAEVKKPGSSVKVSCKASGGTFSSDAISWVRQAPGQGLEWMGGIITNFGTATYAQKFQGRVTITADESTSTAYMELSSLRSEDTAVYYCARDVGVQLVYHGAFDIWGQGTMVTVSS VL: DIQMTQSPSSLSASVGDRVTITCQASQDISNYLNWYQQKPGKAPKLLIYDASNLATGVPSRFSGSGSGTDFTFTISSLQPEDIATYYCQQDDYLPITFGGGTKVEIKR | 1.9 nM | 0.13 nM | 0.1 nM

Continued, values first:

Row | Kd [1] | IC50, FRET enzyme activity, 62.5 pM huBMP1 [2] | IC50, FRET enzyme activity, 800 pM biotinylated mTLL-1 [3] | Binder
9 | 1.5 nM | 0.02 nM | 0.12 nM | 13Y039-4B06-4348 (antibody, human IgG1, kappa, V domains shown, Fully human IgG1 LAGA, kappa; HEK expressed) VH: QVQLVQSGAEVKKPGASVKVSCKASGYTFGGYYMSWVRQAPGQGLEWMGWINPNSGETYYAQKFQGRVTMTRDTSISTAYMELSRLRSDDTAVYYCARDTGELDGMNWYFDLWGRGTLVTVSS VL: EIVLTQSPATLSLSPGERATLSCRASQSVSSYLAWYQQKPGQAPRLLIYDASNRATGIPARFSGSGSGTDFTLTISSLEPEDFAVYYCQQSDSWPPTFGGGTKVEIKR
10 | 0.3 nM | 0.4 nM | 0.88 nM | 13Y039-127G03-2890 (antibody, human IgG1, kappa, V domains shown, Fully human IgG1 LAGA, kappa; HEK expressed) VH: QVQLVQSGAEVKKPGSSVKVSCKASGGTFSSYAISWVRQAPGQGLEWMGGIIPVFGSAYYAQKFQGRVTITADESTSTAYMELSSLRSEDTAVYYCAGEGRAYYGSESYDDSDYMDVWGKGTTVTVSS VL: DIQMTQSPSSLSASVGDRVTITCQASQDISNYLNWYQQKPGKAPKLLIYDASNLETGVPSRFSGSGSGTDFTFTISSLQPEDIATYYCQQADIFPLTFGGGTKVEIKR
11 | 1.4 nM | 0.31 nM | 0.11 nM | 13Y039-152B02-2948 (antibody, human IgG1, kappa, V domains shown, Fully human IgG1 LAGA, kappa; HEK expressed) VH: QVQLVQSGAEVKKPGSSVKVSCKASGGTFSDFAISWVRQAPGQGLEWMGGIIPIYGTASYAQKFLGRVTITADESTSTAYMELSSLRSEDTAVYYCARDVGVQLVYHGAFDIWGQGTMVTVSS VL: DIQMTQSPSSLSASVGDRVTITCQASQDISNYLNWYQQKPGKAPKLLIYDASNLATGVPSRFSGSGSGTDFTFTISSLQPEDIATYYCQQDDYLPITFGGGTKVEIKR
12 | 0.8 nM | 0.25 nM | 0.07 nM | 13Y039-152B02-2935 (antibody, human IgG1, kappa, V domains shown, Fully human IgG1 LAGA, kappa; HEK expressed) VH: QVQLVQSGAEVKKPGSSVKVSCKASGGTFSESAISWVRQAPGQGLEWMGGIIPTFDTTNYAQKFQGRVTITADESTSTAYMELSSLRSEDTAVYYCARDVGVQLVYHGAFDIWGQGTMVTVSS VL: DIQMTQSPSSLSASVGDRVTITCQASQDISNYLNWYQQKPGKAPKLLIYDASNLATGVPSRFSGSGSGTDFTFTISSLQPEDIATYYCQQDDYLPITFGGGTKVEIKR
